Results as given in patent publication US20230212217A1.

Target: full domain protein A ligand (immobilised on resin) (UniProt P38507)
Test: protein A affinity chromatography, pH gradient elution, POROS MabCapture A Select (Example 5-4)

GLP-1-Fc (from UniProt P01275 98-128) (Fc fusion)
Peak 1 End pH (elution): 3.95 pH | Peak 1 start pH (elution): 4.17 pH
